Test results as given in patent publication US20260365719 (published 2026).

Each binder was assayed against SARS-CoV-2 spike trimer (Wuhan) (SARS-CoV-2, UniProt P0DTC2) (assay: competition).

Row | Binder | IC50 [µg/mL]
1 | 6R9A-A2 (antibody, V domains shown) VH: EVQLVESGGGLVQPGGSLRLSCTASGFSFPHQAMTWVRQAPGKGLEWIGVIASNADTYYASWAKGRFTISRDNSKNTLYLQMNSLRAEDTAVYYCARHPGSAGYGYQYYYAMDPWGQGTLVTVSS VL: DIQMTQSPSSLSASVGDRVTITCQASEEVHYGINWYQQKPGKAPKLLIYGANYRVDGVPSRFSGSGSGTDYTLTISSLQPEDFATYYCQQGYNVPTDFGGGTKVEIKR | 0.014
2 | 6R8C-F10 (antibody, V domains shown) VH: EVQLVESGGGLVQPGGSLRLSCKASGFTFSRQALTWVRQAPGKGLEWIGVIASNADTYYASWAKGRFTISRDNSKNTLYLQMNSLRAEDTAVYYCARHPGSAGYGYQYYYAMDPWGQGTLVTVSS VL: DIQMTQSPSSLSASVGDRVTITCKASEDIRYGLNWYQQKPGKAPKLLIYGANYRVDGVPSRFSGSGSGTDYTLTISSLQPEDFATYYCQQGYNVPNFFGGGTKVEIKR | 0.0145
3 | 6R8A-A2 (antibody, V domains shown) VH: EVQLVESGGGLVQPGGSLRLSCKASGYSLNKQALTWVRQAPGKGLEWIGVIASNADTYYASWAKGRFTISRDNSKNTLYLQMNSLRAEDTAVYYCARHPGSAGYGYQYYYAMDPWGQGTLVTVSS VL: DIQMTQSPSSLSASVGDRVTITCQASEEVHYGINWYQQKPGKAPKLLIYGANYRVDGVPSRFSGSGSGTDYTLTISSLQPEDFATYYCQQGYNVPTDFGGGTKVEIKR | 0.0106
4 | 6R8A-E11 (antibody, V domains shown) VH: EVQLVESGGGLVQPGGSLRLSCKASGFTFSRQALTWVRQAPGKGLEWIGVIASNADTYYASWAKGRFTISRDNSKNTLYLQMNSLRAEDTAVYYCARHPGSAGYGYQYYYAMDPWGQGTLVTVSS VL: DIQMTQSPSSLSASVGDRVTITCQASENIRYAINWYQQKPGKAPKLLIYGANYRVDGVPSRFSGSGSGTDYTLTISSLQPEDFATYYCQQGYNVPTDFGGGTKVEIKR | 0.0116
5 | 6R9E-A8 (antibody, V domains shown) VH: EVQLVESGGGLVQPGGSLRLSCKASGSTISHQAVTWVRQAPGKGLEWIGVIASNADTYYASWAKGRFTISRDNSKNTLYLQMNSLRAEDTAVYYCARHPGSAGYGYQYYYAMDPWGQGTLVTVSS VL: DIQMTQSPSSLSASVGDRVTITCQASEEVHYGINWYQQKPGKAPKLLIYGANYRVDGVPSRFSGSGSGTDYTLTISSLQPEDFATYYCQQGYNVPTDFGGGTKVEIKR | 0.0274
6 | 6R8C-D10 (antibody, V domains shown) VH: EVQLVESGGGLVQPGGSLRLSCTASGYSISHQAVTWVRQAPGKGLEWIGVIASNADTYYASWAKGRFTISRDNSKNTLYLQMNSLRAEDTAVYYCARHPGSAGYGYQYYYAMDPWGQGTLVTVSS VL: DIQMTQSPSSLSASVGDRVTITCQASEEVHYGINWYQQKPGKAPKLLIYGANYRVDGVPSRFSGSGSGTDYTLTISSLQPEDFATYYCQQGYNVPTDFGGGTKVEIKR | 0.0098
7 | 6R8C-G8 (antibody, V domains shown) VH: EVQLVESGGGLVQLGGSLRLSCKASGYSLAPQAMTWVRQAPGKGLEWIGVIASNADTYYASWAKGRFTISRDNSKNTLYLQMNSLRAEDTAVYYCARHPGSAGYGYQYYYAMDPWGQGTLVTVSS VL: DIQMTQSPSSLSASVGDRVTITCQASEEVHYGINWYQQKPGKAPKLLIYGANYRVDGVPSRFSGSGSGTDYTLTISSLQPEDFATYYCQQGYNVPTDFGGGTKVEIKR | 0.0124
8 | 6R8C-D9 (antibody, V domains shown) VH: EVQLVESGGGLVQPGGSLRLSCKASGFTFSRQALTWVRQAPGKGLEWIGVIASNADTYYASWAKGRFTISRDNSKNTLYLQMNSLRAEDTAVYYCARHPGSAGYGYQYYYAMDPWGQGTLVTVSS VL: DIQMTQSPSSLSASVGDRVTITCQASEEVHYGINWYQQKPGKAPKLLIYGANYRVDGVPSRFSGSGSGTDYTLTISSLQPEDFATYYCQQGYNVPTDFGGGTKVEIKR | 0.0203
9 | 6R8A-E1 (antibody, V domains shown) VH: EVQLVESGGGLVQPGGSLRLSCKASGYSLAPQAMTWVRQAPGKGLEWIGVIASNADTYYASWAKGRFTISRDNSKNTLYLQMNSLRAEDTAVYYCARHPGSAGYGYQYYYAMDPWGQGTLVTVSS VL: DIQMTQSPSSLSASVGDRVTITCQASENIRYAINWYQQKPGKAPKLLIYGANYRVDGVPSRFSGSGSGTDYTLTISSLQPEDFATYYCQQGYNVPTDFGGGTKVEIKR | 0.0122
10 | 6R9B-E9 (antibody, V domains shown) VH: EVQLVESGGGLVQPGGSLRLSCKASGFTFSRQALTWVRQAPGKGLEWIGVIASNADTYYASWAKGRFTISRDNSKNTLYLQMNSLRAEDTAVYYCARHPGSAGYGYQYYYAMDPWGQGTLVTVSS VL: DIQMTQSPSSLSASVGDRVTITCQASENIRYAVNWYQQKPGKAPKLLIYGANYRVDGVPSRFSGSGSGTDYTLTISSLQPEDFATYYCQQGYRVQILFGGGTKVEIKR | 0.0185
11 | 6R9B-B11 (antibody, V domains shown) VH: EVQLVESGGGLVQPGGSLRLSCKASGFTFSRQALTWVRQAPGKGLEWIGVIASNADTYYASWAKGRFTISRDNSKNTLYLQMNSLRAEDTAVYYCARHPGSAGYGYQYYYAMDPWGQGTLVTVSS VL: DIQMTQSPSSLSASVGDRVTITCQASQAIKYAINWYQQKPGKAPKLLIYGANYRGPGVPSRFSGSGSGTDYTLTISSLQPEDFATYYCQQGYIVPITFGGGTKVEIKR | 0.015
12 | 6R8A-F2 (antibody, V domains shown) VH: EVQLVESGGGLVQPGGSLRLSCKASGYSLSSQALTWVRQAPGKGLEWIGVIASNADTYYASWAKGRFTISRDNSKNTLYLQMNSLRAEDTAVYYCARHPGSAGYGYQYYYAMDPWGQGTLVTVSS VL: DIQMTQSPSSLSASVGDRVTITCQASEKVYYGVNWYQQKPGKAPKLLIYGTNYRLDGVPSRFSGSGSGTDSTLTISSLQPEDFATYYCQQGYNVPNAFGGGTKVEIKR | 0.0169
13 | Bebtelovimab (antibody, V domains shown) VH: QITLKESGPTLVKPTQTLTLTCTFSGFSLSISGVGVGWLRQPPGKALEWLALIYWDDDKRYSPSLKSRLTISKDTSKNQVVLKMTNIDPVDTATYYCAHHSISTIFDHWGQGTLVTVSS VL: QSALTQPASVSGSPGQSITISCTATSSDVGDYNYVSWYQQHPGKAPKLMIFEVSDRPSGISNRFSGSKSGNTASLTISGLQAEDEADYYCSSYTTSSAVFGGGTKLTVLG | 0.00899
